Experimental data reported in PMC5777782, “Dimeric and tetrameric forms of muscle fructose-1,6-bisphosphatase play different roles in the cell” (Oncotarget, 2017).
Positions count from the first letter of the chain named. One block for each compound: values may come before it.

Legend:
[1] = target: T1, Muscle fructose-1,6-bisphosphatase (FBP2), D187L mutant (Homo sapiens, UniProt O00757, D188L); assay: coupled enzyme activity assay; oligomerization by sedimentation velocity ultracentrifugation; format: biochemical
T1 construct: tag-free FBP2, expressed in E. coli
T1 sequence (O00757 2-339 D188L): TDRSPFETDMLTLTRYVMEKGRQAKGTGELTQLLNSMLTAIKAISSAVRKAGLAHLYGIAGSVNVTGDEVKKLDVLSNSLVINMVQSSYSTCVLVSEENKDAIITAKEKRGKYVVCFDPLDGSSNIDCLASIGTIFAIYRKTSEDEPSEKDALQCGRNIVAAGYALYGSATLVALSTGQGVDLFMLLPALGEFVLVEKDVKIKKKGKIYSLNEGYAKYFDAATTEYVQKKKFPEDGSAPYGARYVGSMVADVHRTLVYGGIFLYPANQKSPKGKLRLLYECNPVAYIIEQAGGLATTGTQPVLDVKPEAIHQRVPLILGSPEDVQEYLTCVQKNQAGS

[2] = target: T2, Muscle fructose-1,6-bisphosphatase (FBP2), L190G mutant (Homo sapiens, UniProt O00757, L191G); assay: coupled enzyme activity assay, biphasic inhibition (second phase IC50 […]); format: biochemical
T2 construct: tag-free FBP2, expressed in E. coli
T2 sequence (O00757 2-339 L191G): T1 sequence (O00757 2-339 D188L) with L187D, L190G

[3] = target: T3, Muscle fructose-1,6-bisphosphatase (FBP2), wild-type (Homo sapiens, UniProt O00757); assay: coupled glucose 6-phosphate isomerase/glucose 6-phosphate dehydrogenase activity assay; AMP-induced tetramerization by sedimentation velocity ultracentrifugation; format: biochemical
T3 construct: tag-free WT FBP2, expressed in E. coli
T3 sequence (O00757 2-339): T1 sequence (O00757 2-339 D188L) with L187D

[4] = target: human FBP2 D187L mutant (human); assay: AUC; sedimentation velocity, laser interferometry, 42,000 rpm, 20°C, protein at 0.5 mg/ml, with 120 μM AMP
[5] = target: human FBP2 D187L mutant (human); assay: AUC; sedimentation velocity, laser interferometry, 42,000 rpm, 20°C, protein at 0.1, 0.5 and 1 mg/ml, without AMP; distribution of monomers, dimers and tetramers
[6] = target: human FBP2 D187L mutant (human); assay: AUC; sedimentation velocity, laser interferometry, 42,000 rpm, 20°C, protein at 0.5 mg/ml, with 5 mM AMP
[7] = target: human FBP2 L190G mutant (human); assay: AUC; sedimentation velocity, laser interferometry, 42,000 rpm, 20°C, protein at 0.5 mg/ml, with 120 μM AMP
[8] = target: human FBP2 L190G mutant (human); assay: AUC; sedimentation velocity, laser interferometry, 42,000 rpm, 20°C, protein at 0.5 mg/ml, with 0.16 μM AMP
[9] = target: human FBP2 L190G mutant (human); assay: AUC; sedimentation velocity, laser interferometry, 42,000 rpm, 20°C, protein at 0.1, 0.5 and 1 mg/ml, without AMP; distribution of monomers, dimers and tetramers
[10] = target: human FBP2 L190G mutant (human); assay: AUC; sedimentation velocity, laser interferometry, 42,000 rpm, 20°C, protein at 0.5 mg/ml, with 5 mM AMP

IC50 [1]: 1440 ± 60 nM | IC50 [2]: 84400 ± 6730 nM | IC50 [3]: 0.59 ± 0.01 µM
Compound: Nc1ncnc2c1ncn2[C@@H]1O[C@H](COP(=O)(O)O)[C@@H](O)[C@H]1O [AMP]

percent tetrameric [4]: 45% | percent dimeric [5]: 83.4% | stoichiometry N [5]: 2 | percent tetrameric [6]: 35%
Compound: human FBP2 D187L mutant (enzyme)

stoichiometry N [7]: 2 | stoichiometry N [8]: 2 | percent dimeric [9]: 91.2% | stoichiometry N [9]: 2 | stoichiometry N [10]: 2
Compound: human FBP2 L190G mutant (enzyme)
